Data reported in US20240327514A1 (Janssen / Centocor, published 2024).

Biological target: T1, human CD123 (human, UniProt P26951 19-378)
T1 construct: whole, on cells; Target presented on CD123+ AML cell lines; also called CD123 on CD123+ AML cells
Assay: flow cytometry on tumor cell lines, detection with mouse anti-human IgG4
Experimental: All tumor cells were centrifuged, washed twice with Dulbecco's phosphate-buffered saline (DPBS) and 1×10^4 cells were added to the center of each well of a 96 well U bottom plate along with fragment crystallizable (Fc) block (human IgG1 fragment) which was added at 2 mg/mL for 10 minutes. Serially diluted bispecific antibodies were added to the appropriate wells. Plates were incubated in the dark at 37° C. with 5% CO₂ for 4 hours. The cells were then washed with DPBS and binding of the bispecific antibody was detected by staining with mouse anti-human IgG4 (Southern Biotech, clone HP6025, catalog #9200-09) and LIVE/DEAD (L/D; Invitrogen, catalog #L34976) for 30 minutes. Finally, cells were washed, resuspended in stain buffer, and analyzed on the FACSCanto II flow cytometer (BD Biosciences). Geometric mean fluorescence intensity (gMFI) was plotted in Prism version 7 (GraphPad). The X axis was log transformed and a 4 parameter non-linear curve fit was applied.

T1 sequence (P26951 19-378): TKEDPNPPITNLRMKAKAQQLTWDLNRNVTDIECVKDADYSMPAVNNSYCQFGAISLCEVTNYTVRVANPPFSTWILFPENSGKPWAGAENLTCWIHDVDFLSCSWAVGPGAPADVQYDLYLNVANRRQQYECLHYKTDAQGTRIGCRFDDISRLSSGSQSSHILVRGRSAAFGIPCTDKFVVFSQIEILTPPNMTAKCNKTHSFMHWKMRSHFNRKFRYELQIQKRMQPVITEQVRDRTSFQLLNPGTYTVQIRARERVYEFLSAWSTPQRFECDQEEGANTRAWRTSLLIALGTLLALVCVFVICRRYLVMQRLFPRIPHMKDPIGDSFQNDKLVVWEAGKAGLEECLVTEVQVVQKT

B1: CD123×CD3 bispecific antibody (bispecific antibody, human IgG4 S228P, kappa, lambda, F234A L235A)
heavy 1: not shown
light 1: EIVLTQSPGTLSLSPGERATLSCRASQSVSSSYLAWYQQKPGQAPRLLIYGASSRATGIPDRFSGSGSGTDFTLTISRLEPEDFAVYYCQQDYGFPWTFGQGTKVEIKRTVAAPSVFIFPPSDEQLKSGTASVVCLLNNFYPREAKVQWKVDNALQSGNSQESVTEQDSKDSTYSLSSTLTLSKADYEKHKVYACEVTHQGLSSPVTKSFNRGEC
heavy 2: EVQLVESGGGLVQPGGSLKLSCAASGFTFNTYAMNWVRQASGKGLEWVGRIRSKYNAYATYYAASVKGRFTISRDDSKNTAYLQMNSLKTEDTAVYYCTRHGNFGNSYVSWFAYWGQGTLVTVSSASTKGPSVFPLAPCSRSTSESTAALGCLVKDYFPEPVTVSWNSGALTSGVHTFPAVLQSSGLYSLSSVVTVPSSSLGTKTYTCNVDHKPSNTKVDKRVESKYGPPCPPCPAPEAAGGPSVFLFPPKPKDTLMISRTPEVTCVVVDVSQEDPEVQFNWYVDGVEVHNAKTKPREEQFNSTYRVVSVLTVLHQDWLNGKEYKCKVSNKGLPSSIEKTISKAKGQPREPQVYTLPPSQEEMTKNQVSLTCLVKGFYPSDIAVEWESNGQPENNYKTTPPVLDSDGSFLLYSKLTVDKSRWQEGNVFSCSVMHEALHNHYTQKSLSLSLGK
light 2: QAVVTQEPSLTVSPGGTVTLTCRSSTGAVTTSNYANWVQQKPGQAPRGLIGGTNKRAPGTPARFSGSLLGGKAALTLSGAQPEDEAEYYCALWYSNLWVFGGGTKLTVLGQPKAAPSVTLFPPSSEELQANKATLVCLISDFYPGAVTVAWKADSSPVKAGVETTTPSKQSNNKYAASSYLSLTPEQWKSHRSYSCQVTHEGSTVEKTVAPTECS
notes: also called CD123xCD3 DuoBody antibody
binding result: binds
